Residue numbers refer to the chain shown, from its start. Numbered stars: 1 amine (or outer) side, 2 acyl side, 3 side chain; on linkers, the order of the positions; unused ones are H or OH. Square brackets hold non-standard residues; d marks the D form. Side chains are listed from the residue outwards. Ends that are not written are not given here. * marks the point of attachment. C20 diacid = O=C(O)CCCCCCCCCCCCCCCCCCC(=O)*; C18 diacid = O=C(O)CCCCCCCCCCCCCCCCC(=O)*; γGlu = O=C(O)[C@H](CCC(=O)[*:2])N[*:1]; AEEA = NCCOCCOCC(=O)O; Aib = CC(C)(N)C(=O)O
T1: human gastric inhibitory peptide receptor (GIPR) (human, UniProt P48546 22-466)
T1 sequence (looked up): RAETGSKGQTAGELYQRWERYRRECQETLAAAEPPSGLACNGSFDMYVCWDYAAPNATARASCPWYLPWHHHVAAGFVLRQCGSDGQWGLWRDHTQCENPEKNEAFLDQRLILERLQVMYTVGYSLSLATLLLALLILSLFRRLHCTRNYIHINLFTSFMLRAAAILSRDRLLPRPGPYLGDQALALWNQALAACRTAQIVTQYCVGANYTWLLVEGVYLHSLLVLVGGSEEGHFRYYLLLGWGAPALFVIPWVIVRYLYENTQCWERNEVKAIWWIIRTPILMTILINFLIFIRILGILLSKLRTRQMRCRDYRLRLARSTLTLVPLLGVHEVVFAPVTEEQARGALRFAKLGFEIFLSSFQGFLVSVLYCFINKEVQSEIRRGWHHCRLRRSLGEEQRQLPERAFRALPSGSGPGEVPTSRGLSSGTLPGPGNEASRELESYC

B1: Example 323 (peptide)
peptide: YXEGTFTSDYSIXLDEKAQXAFIEYLIEGGPSSGAPPPS
modifications: Aib2, αMeL13, (2-[2-(2-Amino-ethoxy)-ethoxy]-acetyl)2-(γ-Glu)-CO-(CH2)16-CO2H on K17, Aib20, C-terminal NH2
B2: Example 327 (peptide)
peptide: B1 peptide with Y1F, E16K
modifications: Aib2, αMeL13, (2-[2-(2-Amino-ethoxy)-ethoxy]-acetyl)2-(γ-Glu)-CO-(CH2)18-CO2H on K17, Aib20, C-terminal NH2
B3: Example 325 (peptide)
peptide: B1 peptide with F6X, X13L, E16K
modifications: Aib2, αMeF(2F)6, (2-[2-(2-Amino-ethoxy)-ethoxy]-acetyl)2-(γ-Glu)-CO-(CH2)18-CO2H on K17, Aib20, C-terminal NH2
B4: Example 328 (peptide)
peptide: B1 peptide with Y1F, E16K, G29A
modifications: Aib2, αMeL13, (2-[2-(2-Amino-ethoxy)-ethoxy]-acetyl)2-(γ-Glu)-CO-(CH2)16-CO2H on K17, Aib20, C-terminal NH2
B5: Example 329 (peptide)
peptide: B1 peptide with Y1X, F6X, X13L, E16K
modifications: D-Tyr1, Aib2, αMeF6, (2-[2-(2-Amino-ethoxy)-ethoxy]-acetyl)2-(γ-Glu)-CO-(CH2)18-CO2H on K17, Aib20, C-terminal NH2
B6: Example 324 (peptide)
peptide: B1 peptide with E16K, E28A
modifications: Aib2, αMeL13, (2-[2-(2-Amino-ethoxy)-ethoxy]-acetyl)2-(γ-Glu)-CO-(CH2)1s-CO2H (so in the source); probably (CH2)18) on K17, Aib20, C-terminal NH2
B7: Example 332 (peptide)
peptide: B1 peptide with E28A
modifications: Aib2, αMeL13, (2-[2-(2-Amino-ethoxy)-ethoxy]-acetyl)2-(γ-Glu)-CO-(CH2)18-CO2H on K17, Aib20, C-terminal NH2
B8: Example 337 (peptide)
peptide: B1 peptide with Y1F, E16K, E28A
modifications: not fully specified; Aib2, αMeL13, (2-[2-(2-Amino-ethoxy)-ethoxy]-acetyl)2-(γ-Glu)-CO-(CH2)18-CO2H on K17, Aib20, C-terminal NH2
B9: Example 333 (peptide)
peptide: B1 peptide with E16K, A21E
modifications: not fully specified; Aib2, αMeL13, (2-[2-(2-Amino-ethoxy)-ethoxy]-acetyl)2-(γ-Glu)-CO-(CH2)18-CO2H on K17, Aib20, C-terminal NH2
B10: Example 331 (peptide)
peptide: B1 peptide with A21E, E28A
modifications: Aib2, αMeL13, (2-[2-(2-Amino-ethoxy)-ethoxy]-acetyl)2-(γ-Glu)-CO-(CH2)18-CO2H on K17, Aib20, C-terminal NH2
B11: Example 338 (peptide)
peptide: B1 peptide with Y1F, E16K, A21E, E28A
modifications: not fully specified; Aib2, αMeL13, (2-[2-(2-Amino-ethoxy)-ethoxy]-acetyl)2-(γ-Glu)-CO-(CH2)18-CO2H on K17, Aib20, C-terminal NH2
B12: Example 334 (peptide)
peptide: B1 peptide with Y1X, E16K
modifications: not fully specified; D-Tyr1, Aib2, αMeL13, (2-[2-(2-Amino-ethoxy)-ethoxy]-acetyl)2-(γ-Glu)-CO-(CH2)18-CO2H on K17, Aib20, C-terminal NH2
B13: Example 320 (peptide)
peptide: Y[Aib]EGTFTSDYSILLDKK([AEEA-AEEA-γGlu-C18 diacid])AQ[Aib]DFIEYLIEGGPSSG-NH2
modifications: N-terminus assumed
SMILES: CC[C@H](C)[C@H](NC(=O)[C@H](CC(C)C)NC(=O)[C@H](Cc1ccc(O)cc1)NC(=O)[C@H](CCC(=O)O)NC(=O)[C@@H](NC(=O)[C@H](Cc1ccccc1)NC(=O)[C@H](CC(=O)O)NC(=O)C(C)(C)NC(=O)[C@H](CCC(N)=O)NC(=O)[C@H](C)NC(=O)[C@H](CCCCNC(=O)COCCOCCNC(=O)COCCOCCNC(=O)CC[C@H](NC(=O)CCCCCCCCCCCCCCCCC(=O)O)C(=O)O)NC(=O)[C@H](CCCCN)NC(=O)[C@H](CC(=O)O)NC(=O)[C@H](CC(C)C)NC(=O)[C@H](CC(C)C)NC(=O)[C@@H](NC(=O)[C@H](CO)NC(=O)[C@H](Cc1ccc(O)cc1)NC(=O)[C@H](CC(=O)O)NC(=O)[C@H](CO)NC(=O)[C@@H](NC(=O)[C@H](Cc1ccccc1)NC(=O)[C@@H](NC(=O)CNC(=O)[C@H](CCC(=O)O)NC(=O)C(C)(C)NC(=O)[C@@H](N)Cc1ccc(O)cc1)[C@@H](C)O)[C@@H](C)O)[C@@H](C)CC)[C@@H](C)CC)C(=O)N[C@@H](CCC(=O)O)C(=O)NCC(=O)NCC(=O)N1CCC[C@H]1C(=O)N[C@@H](CO)C(=O)N[C@@H](CO)C(=O)NCC(N)=O
B14: Example 321 (peptide)
peptide: Y[Aib]EGTFTSDYSILLDKK([AEEA-AEEA-γGlu-C18 diacid])AQ[Aib]TFIEYLIEGGPSSG-NH2
modifications: N-terminus assumed
SMILES: CC[C@H](C)[C@H](NC(=O)[C@H](CC(C)C)NC(=O)[C@H](Cc1ccc(O)cc1)NC(=O)[C@H](CCC(=O)O)NC(=O)[C@@H](NC(=O)[C@H](Cc1ccccc1)NC(=O)[C@@H](NC(=O)C(C)(C)NC(=O)[C@H](CCC(N)=O)NC(=O)[C@H](C)NC(=O)[C@H](CCCCNC(=O)COCCOCCNC(=O)COCCOCCNC(=O)CC[C@H](NC(=O)CCCCCCCCCCCCCCCCC(=O)O)C(=O)O)NC(=O)[C@H](CCCCN)NC(=O)[C@H](CC(=O)O)NC(=O)[C@H](CC(C)C)NC(=O)[C@H](CC(C)C)NC(=O)[C@@H](NC(=O)[C@H](CO)NC(=O)[C@H](Cc1ccc(O)cc1)NC(=O)[C@H](CC(=O)O)NC(=O)[C@H](CO)NC(=O)[C@@H](NC(=O)[C@H](Cc1ccccc1)NC(=O)[C@@H](NC(=O)CNC(=O)[C@H](CCC(=O)O)NC(=O)C(C)(C)NC(=O)[C@@H](N)Cc1ccc(O)cc1)[C@@H](C)O)[C@@H](C)O)[C@@H](C)CC)[C@@H](C)O)[C@@H](C)CC)C(=O)N[C@@H](CCC(=O)O)C(=O)NCC(=O)NCC(=O)N1CCC[C@H]1C(=O)N[C@@H](CO)C(=O)N[C@@H](CO)C(=O)NCC(N)=O
B15: Example 330 (peptide)
peptide: Y[Aib]EGTFTSDYSILLDEK([AEEA-AEEA-γGlu-C20 diacid])AQ[Aib]AFIEYLIAGGPSSGAPPPS-NH2
modifications: N-terminus assumed
SMILES: CC[C@H](C)[C@H](NC(=O)[C@H](CC(C)C)NC(=O)[C@H](Cc1ccc(O)cc1)NC(=O)[C@H](CCC(=O)O)NC(=O)[C@@H](NC(=O)[C@H](Cc1ccccc1)NC(=O)[C@H](C)NC(=O)C(C)(C)NC(=O)[C@H](CCC(N)=O)NC(=O)[C@H](C)NC(=O)[C@H](CCCCNC(=O)COCCOCCNC(=O)COCCOCCNC(=O)CC[C@H](NC(=O)CCCCCCCCCCCCCCCCCCC(=O)O)C(=O)O)NC(=O)[C@H](CCC(=O)O)NC(=O)[C@H](CC(=O)O)NC(=O)[C@H](CC(C)C)NC(=O)[C@H](CC(C)C)NC(=O)[C@@H](NC(=O)[C@H](CO)NC(=O)[C@H](Cc1ccc(O)cc1)NC(=O)[C@H](CC(=O)O)NC(=O)[C@H](CO)NC(=O)[C@@H](NC(=O)[C@H](Cc1ccccc1)NC(=O)[C@@H](NC(=O)CNC(=O)[C@H](CCC(=O)O)NC(=O)C(C)(C)NC(=O)[C@@H](N)Cc1ccc(O)cc1)[C@@H](C)O)[C@@H](C)O)[C@@H](C)CC)[C@@H](C)CC)C(=O)N[C@@H](C)C(=O)NCC(=O)NCC(=O)N1CCC[C@H]1C(=O)N[C@@H](CO)C(=O)N[C@@H](CO)C(=O)NCC(=O)N[C@@H](C)C(=O)N1CCC[C@H]1C(=O)N1CCC[C@H]1C(=O)N1CCC[C@H]1C(=O)N[C@@H](CO)C(N)=O
B16: Example 322 (peptide)
peptide: Y[Aib]EGTFTSDYSILLDKK([AEEA-AEEA-γGlu-C18 diacid])AQ[Aib]HFIEYLIEGGPSSG-NH2
modifications: N-terminus assumed
SMILES: CC[C@H](C)[C@H](NC(=O)[C@H](CC(C)C)NC(=O)[C@H](Cc1ccc(O)cc1)NC(=O)[C@H](CCC(=O)O)NC(=O)[C@@H](NC(=O)[C@H](Cc1ccccc1)NC(=O)[C@H](Cc1c[nH]cn1)NC(=O)C(C)(C)NC(=O)[C@H](CCC(N)=O)NC(=O)[C@H](C)NC(=O)[C@H](CCCCNC(=O)COCCOCCNC(=O)COCCOCCNC(=O)CC[C@H](NC(=O)CCCCCCCCCCCCCCCCC(=O)O)C(=O)O)NC(=O)[C@H](CCCCN)NC(=O)[C@H](CC(=O)O)NC(=O)[C@H](CC(C)C)NC(=O)[C@H](CC(C)C)NC(=O)[C@@H](NC(=O)[C@H](CO)NC(=O)[C@H](Cc1ccc(O)cc1)NC(=O)[C@H](CC(=O)O)NC(=O)[C@H](CO)NC(=O)[C@@H](NC(=O)[C@H](Cc1ccccc1)NC(=O)[C@@H](NC(=O)CNC(=O)[C@H](CCC(=O)O)NC(=O)C(C)(C)NC(=O)[C@@H](N)Cc1ccc(O)cc1)[C@@H](C)O)[C@@H](C)O)[C@@H](C)CC)[C@@H](C)CC)C(=O)N[C@@H](CCC(=O)O)C(=O)NCC(=O)NCC(=O)N1CCC[C@H]1C(=O)N[C@@H](CO)C(=O)N[C@@H](CO)C(=O)NCC(N)=O

Biological target: T1, human gastric inhibitory peptide …
Assay: cell-based or functional assay

Binder | hGIPR cAMP EC50 ratio | hGIPR cAMP Rel EC50
B1 | 3.24 | 0.0251 nM
B2 | 1.47 | 0.0548 nM
B3 | 2.65 | 0.0301 nM
B4 | 0.94 | 0.0965 nM
B5 | 0.687 | 0.132 nM
B6 | 2.13 | 0.0374 nM
B7 | 0.949 | 0.0745 nM
B8 | 1.18 | 0.0515 nM
B9 | 2.31 | 0.0492 nM
B10 | 1.4 | 0.0547 nM
B11 | 1.29 | 0.0472 nM
B12 | 0.844 | 0.0718 nM
F[Aib]EGTFTSDYSILLDKK([AEEA-AEEA-γGlu-C20 diacid])AQ[Aib]AFIEYLIEGGPSSGAPPPS-NH2 [Example 326] | 1.5 | 0.0754 nM
B13 | 0.241 | 0.161 nM
B14 | 0.517 | 0.0752 nM
B15 | 0.562 | 0.0919 nM
B16 | 0.266 | 0.146 nM

Biological target: human GLP-1 receptor (GLP-1R) (human, UniProt P43220 24-463)
Assay: cell-based or functional assay

Binder | hGLP1R cAMP EC50 ratio | hGLP1R cAMP Rel EC50
B1 | 1.32 | 0.0597 nM
B2 | 0.191 | 0.27 nM
B3 | 1.16 | 0.0586 nM
B4 | 0.575 | 0.117 nM
B5 | 0.535 | 0.125 nM
B6 | 0.798 | 0.0926 nM
B7 | 0.345 | 0.184 nM
B8 | 0.265 | 0.173 nM
B9 | 0.487 | 0.131 nM
B10 | 0.808 | 0.0929 nM
B11 | 0.262 | 0.174 nM
B12 | 0.151 | 0.303 nM
F[Aib]EGTFTSDYSILLDKK([AEEA-AEEA-γGlu-C20 diacid])AQ[Aib]AFIEYLIEGGPSSGAPPPS-NH2 [Example 326] | 1.4 | 0.0369 nM
B13 | 0.224 | 0.397 nM
B14 | 0.437 | 0.204 nM
B15 | 0.255 | 0.199 nM
B16 | 0.125 | 0.711 nM
